Data taken from patent publication US20260274993A1 (HUMMINGBIRD BIOSCIENCE PTE, published 2026).

Assays:
[1] = target: T1, 3A6; experiment: ELISA, human IgG1 antigen captured on anti-human IgG Fc;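 also: humanized antibodies bound to human IgG1 antigen captured at 1 µg/ml on anti-human IgG Fc plates, detected with anti-mouse IgG Fc/HRP, VSTB112 serving as negative control protein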
T1 construct: also called 3A6 antibody (containing VH4-34 antigen); 3A6 (VH4-34 antigen)
Procedure: (§1) The binding affinity of each humanized antibody for 3A6 antibody (containing VH4-34 antigen), 3A6-FR1 (VH4-34 FR1 mutant) and VSTB112 (negative control protein) was evaluated.
(§2) Plates were coated with 1 ug/ml of anti-human IgG Fc overnight at 4° C. Plates were washed thrice with PBS/0.05% Tween (PBST) before blocking with 5% BSA for 1 h at room temp (RT). Plates were then washed again before addition of 1 μg/ml of 3A6 (VH4-34 antigen), 3A6-FR1 (VH4-34 FR1 mutant) or VSTB112 (negative control protein) human IgG1 proteins. Plates were washed thrice. […] After washing the plates, anti-mouse IgG Fc/HRP diluted 1:5000 in 1% BSA was added and incubated for 1 h at RT. Plates were washed before detection using 1-step ELISA substrate.

[2] = target: T2, 3A6 mutant FR1; experiment: as above
T2 construct: also called 3A6 FR1; 3A6-FR1 (VH4-34 FR1 mutant)
Procedure: as §1, §2

[3] = target: T1, 3A6; experiment: flow cytometry (geomean MFI), CHO cells overexpressing the surface antibody
[4] = target: T3, zanolimumab; experiment: as above
T3 construct: VH4-34-containing antibody used as the antigen, overexpressed on the surface of CHO cells; also called Zano.hIgG1

[5] = target: tabalumab; experiment: as above
[6] = target: T4, antibodies containing VH4-34 endogenously expressed by cell line OCI-Ly3; experiment: flow cytometry, EC50 of % parent, OCI-Ly3 cells endogenously expressing VH4-34
T4 construct: Whole, on cells; also called VH4-34-expressing cell line OCI-Ly3
Procedure: (§3) Binding was assessed by FACS. Briefly, cells were assayed in PBS with 0.5% BSA and 2 mM EDTA. Live dead staining was performed with a live dead cell dye for 15 minutes at 4° C. […] Following this, cells were incubated with a secondary PE goat anti-mouse IgG (1:300) for 30 mins at 4° C. and PE readout was measured.

[7] = target: T4, antibodies containing VH4-34 …; experiment: flow cytometry, EC50 of MFI, OCI-Ly3 cells endogenously expressing VH4-34
Procedure: as §3

T1 sequence (VH, as listed by the source, chain 1 of 2): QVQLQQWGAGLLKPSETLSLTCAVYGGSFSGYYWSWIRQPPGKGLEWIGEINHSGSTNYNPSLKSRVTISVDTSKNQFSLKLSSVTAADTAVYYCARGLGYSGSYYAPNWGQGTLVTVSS
T1 sequence (VL, as listed by the source, chain 2 of 2): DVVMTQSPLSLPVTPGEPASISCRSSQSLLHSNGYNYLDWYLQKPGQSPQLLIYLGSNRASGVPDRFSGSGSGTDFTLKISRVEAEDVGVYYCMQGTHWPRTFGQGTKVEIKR
T2 sequence (VH, as listed by the source, chain 1 of 2): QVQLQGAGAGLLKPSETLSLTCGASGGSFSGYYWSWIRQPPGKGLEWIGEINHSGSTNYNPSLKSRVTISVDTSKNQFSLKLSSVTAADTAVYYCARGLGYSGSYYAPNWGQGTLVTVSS
Sequence of tabalumab (VH, as listed by the source, chain 1 of 2): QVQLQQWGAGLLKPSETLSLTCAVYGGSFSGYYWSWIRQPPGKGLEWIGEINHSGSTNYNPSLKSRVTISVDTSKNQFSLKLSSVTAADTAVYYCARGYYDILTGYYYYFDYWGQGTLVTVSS
Sequence of tabalumab (VL, as listed by the source, chain 2 of 2): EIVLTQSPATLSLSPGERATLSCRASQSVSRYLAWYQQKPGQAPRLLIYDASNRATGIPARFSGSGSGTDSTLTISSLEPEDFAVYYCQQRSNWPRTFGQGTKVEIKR
T3 sequence (VH, as listed by the source, chain 1 of 2): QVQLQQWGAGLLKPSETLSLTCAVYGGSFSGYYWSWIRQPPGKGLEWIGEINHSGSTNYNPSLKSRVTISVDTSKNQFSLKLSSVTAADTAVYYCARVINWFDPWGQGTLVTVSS
T3 sequence (VL, as listed by the source, chain 2 of 2): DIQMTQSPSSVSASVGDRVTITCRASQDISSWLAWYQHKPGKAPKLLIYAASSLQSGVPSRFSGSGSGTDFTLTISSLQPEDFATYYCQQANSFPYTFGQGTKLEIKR

Binder | EC50 [1] [nM] | binding result [2] | EC50 [3] [nM] | EC50 [4] [nM] | EC50 [5] [nM] | EC50 [6] [nM] | EC50 [7] [nM]
D011-7016-LD2 H4/L4 IgG2a (antibody, V domains shown) VH: QVQLQESGPGLVKPSETLSLTCTVSWDAITSGYWNWVRQPPGNKLEYMGYISYSGSAHYNPSLKSRITISRDTSKNQYSLKLSSVTAADTAVYYCASYSFAYWGQGTLVTVSS VL: EIVLTQSPDFQSVTPKEKVTITCRASQSIDNQLHWYQQKPDQSPKLLIKYASQSISGVPSRFSGSGSGTDFTLTISSLEAEDAATYFCQQSYGWPYTFGGGTKLEIKR | 0.0365 | no binding (tested: 1 µg/ml (highest concentration)) | – | – | – | – | –
D011-7016-LD2 H5/L3 IgG2a (antibody, V domains shown) VH: QVQLQESGPGLVKPSQTLSLTCTVSWDAITSGYWNWVRQHPGNKLEYMGYISYSGSAHYNPSLKSRITISRDTSKNQYSLKLSSVTAADTAVYYCASYSFAYWGQGTLVTVSS VL: DIQMTQSPSSLSASVGDRVTITCRASQSIDNQLHWYQQKPGKSPNLLINYASQSISGVPSRFSGSGSGTDFTLTISSLQPEDFATYFCQQSYGWPYTFGGGTKVEIKR | 0.282 | no binding (tested: 1 µg/ml (highest concentration)) | – | – | – | – | –
D011-7016-LD2 H5/L1 IgG2a (antibody, V domains shown) VH: QVQLQESGPGLVKPSQTLSLTCTVSWDAITSGYWNWVRQHPGNKLEYMGYISYSGSAHYNPSLKSRITISRDTSKNQYSLKLSSVTAADTAVYYCASYSFAYWGQGTLVTVSS VL: DIVMTQSPPSLSVTPGEPASLSCRASQSIDNQLHWYLQKPGQSPQLLINYASQSISGVTDRFSGSGSGTDFTLKISRVEAEDVGVYFCQQSYGWPYTFGGGTKVEIKR | 0.0295 | no binding (tested: 1 µg/ml (highest concentration)) | 0.59 | 0.645 | 0.313 | 0.0047 | 0.308
D011-7016-LD2 H3/L3 IgG2a (antibody, V domains shown) VH: QVQLQESGPGLVKPSETLSLTCSVSWDAITSGYWNWVRQPPGNKLEYMGYISYSGSAHYNPSLKSRITISRDTSKNQYSLTLTSMTAADTALYYCASYSFAYWGQGTLVTVSS VL: DIQMTQSPSSLSASVGDRVTITCRASQSIDNQLHWYQQKPGKSPNLLINYASQSISGVPSRFSGSGSGTDFTLTISSLQPEDFATYFCQQSYGWPYTFGGGTKVEIKR | 0.169 | no binding (tested: 1 µg/ml (highest concentration)) | – | – | – | – | –
D011-7016-LD2 H4/L3 IgG2a (antibody, V domains shown) VH: QVQLQESGPGLVKPSETLSLTCTVSWDAITSGYWNWVRQPPGNKLEYMGYISYSGSAHYNPSLKSRITISRDTSKNQYSLKLSSVTAADTAVYYCASYSFAYWGQGTLVTVSS VL: DIQMTQSPSSLSASVGDRVTITCRASQSIDNQLHWYQQKPGKSPNLLINYASQSISGVPSRFSGSGSGTDFTLTISSLQPEDFATYFCQQSYGWPYTFGGGTKVEIKR | 0.011 | no binding (tested: 1 µg/ml (highest concentration)) | – | – | – | – | –
D011-7016-LD2 H0/L0 IgG2a (antibody, V domains shown) VH: QVQLQESGPGLVKPSETLSLTCTVSGDAITSGYWNWIRQPPGKGLEYMGYISYSGSAHYNPSLKSRITISRDTSKNQYSLKLSSVTAADTAVYYCASYSFAYWGQGTLVTVSS VL: EIVMTQSPDFQSVTPKEKVTITCRASQSIDNQLHWYQQKPDQSPKLLINYASQSISGVPSRFSGSGSGTDFTLTISSLEAEDAATYYCQQSYGWPYTFGQGTKLEIKR | 0.0369 | no binding (tested: 1 µg/ml (highest concentration)) | 0.605 | 0.453 | 0.376 | 0.00384 | 0.271
D011-7016-LD2 H1/L4 IgG2a (antibody, V domains shown) VH: QVQLQESGPGLVKPSQTLSLTCTVSWDAITSGYWNWVRQHPGKGLEYMGYISYSGSAHYNPSLKSRITISRDTSKNQYSLKLSSVTAADTATYYCASYSFAYWGQGTLVTVSS VL: EIVLTQSPDFQSVTPKEKVTITCRASQSIDNQLHWYQQKPDQSPKLLIKYASQSISGVPSRFSGSGSGTDFTLTISSLEAEDAATYFCQQSYGWPYTFGGGTKLEIKR | 0.0234 | no binding (tested: 1 µg/ml (highest concentration)) | – | – | – | 0.00765 | 0.46
D011-7016-LD2 H1/L3 IgG2a (antibody, V domains shown) VH: QVQLQESGPGLVKPSQTLSLTCTVSWDAITSGYWNWVRQHPGKGLEYMGYISYSGSAHYNPSLKSRITISRDTSKNQYSLKLSSVTAADTATYYCASYSFAYWGQGTLVTVSS VL: DIQMTQSPSSLSASVGDRVTITCRASQSIDNQLHWYQQKPGKSPNLLINYASQSISGVPSRFSGSGSGTDFTLTISSLQPEDFATYFCQQSYGWPYTFGGGTKVEIKR | 0.0469 | no binding (tested: 1 µg/ml (highest concentration)) | – | – | – | – | –
D011-7016-LD2 H1/L1 IgG2a (antibody, V domains shown) VH: QVQLQESGPGLVKPSQTLSLTCTVSWDAITSGYWNWVRQHPGKGLEYMGYISYSGSAHYNPSLKSRITISRDTSKNQYSLKLSSVTAADTATYYCASYSFAYWGQGTLVTVSS VL: DIVMTQSPPSLSVTPGEPASLSCRASQSIDNQLHWYLQKPGQSPQLLINYASQSISGVTDRFSGSGSGTDFTLKISRVEAEDVGVYFCQQSYGWPYTFGGGTKVEIKR | 0.0446 | no binding (tested: 1 µg/ml (highest concentration)) | – | – | – | – | –
D011-7016-LD2 H4/L2 IgG2a (antibody, V domains shown) VH: QVQLQESGPGLVKPSETLSLTCTVSWDAITSGYWNWVRQPPGNKLEYMGYISYSGSAHYNPSLKSRITISRDTSKNQYSLKLSSVTAADTAVYYCASYSFAYWGQGTLVTVSS VL: DIVMTQSPPSLSVTPGESASISCRASQSIDNQLHWYLQKPGQSPQLLINYASQSISGVTDRFSGSGSGTDFTLKISRVEAEDVGMYFCQQSYGWPYTFGGGTKVEIKR | 0.0532 | no binding (tested: 1 µg/ml (highest concentration)) | – | – | – | 0.00428 | 0.33
D011-7016-LD2 H3/L1 IgG2a (antibody, V domains shown) VH: QVQLQESGPGLVKPSETLSLTCSVSWDAITSGYWNWVRQPPGNKLEYMGYISYSGSAHYNPSLKSRITISRDTSKNQYSLTLTSMTAADTALYYCASYSFAYWGQGTLVTVSS VL: DIVMTQSPPSLSVTPGEPASLSCRASQSIDNQLHWYLQKPGQSPQLLINYASQSISGVTDRFSGSGSGTDFTLKISRVEAEDVGVYFCQQSYGWPYTFGGGTKVEIKR | 0.0398 | no binding (tested: 1 µg/ml (highest concentration)) | – | – | – | 0.00375 | 0.292
D011-7016-LD2 H5/L2 IgG2a (antibody, V domains shown) VH: QVQLQESGPGLVKPSQTLSLTCTVSWDAITSGYWNWVRQHPGNKLEYMGYISYSGSAHYNPSLKSRITISRDTSKNQYSLKLSSVTAADTAVYYCASYSFAYWGQGTLVTVSS VL: DIVMTQSPPSLSVTPGESASISCRASQSIDNQLHWYLQKPGQSPQLLINYASQSISGVTDRFSGSGSGTDFTLKISRVEAEDVGMYFCQQSYGWPYTFGGGTKVEIKR | 0.0432 | no binding (tested: 1 µg/ml (highest concentration)) | 0.59 | 0.65 | 0.284 | 0.00438 | 0.281
D011-7016-LD2 H4/L1 IgG2a (antibody, V domains shown) VH: QVQLQESGPGLVKPSETLSLTCTVSWDAITSGYWNWVRQPPGNKLEYMGYISYSGSAHYNPSLKSRITISRDTSKNQYSLKLSSVTAADTAVYYCASYSFAYWGQGTLVTVSS VL: DIVMTQSPPSLSVTPGEPASLSCRASQSIDNQLHWYLQKPGQSPQLLINYASQSISGVTDRFSGSGSGTDFTLKISRVEAEDVGVYFCQQSYGWPYTFGGGTKVEIKR | 0.0521 | no binding (tested: 1 µg/ml (highest concentration)) | – | – | – | – | –
D011-7016-LD2 H3/L4 IgG2a (antibody, V domains shown) VH: QVQLQESGPGLVKPSETLSLTCSVSWDAITSGYWNWVRQPPGNKLEYMGYISYSGSAHYNPSLKSRITISRDTSKNQYSLTLTSMTAADTALYYCASYSFAYWGQGTLVTVSS VL: EIVLTQSPDFQSVTPKEKVTITCRASQSIDNQLHWYQQKPDQSPKLLIKYASQSISGVPSRFSGSGSGTDFTLTISSLEAEDAATYFCQQSYGWPYTFGGGTKLEIKR | 0.0627 | no binding (tested: 1 µg/ml (highest concentration)) | – | – | – | – | –
D011-7016-LD2 H3/L2 IgG2a (antibody, V domains shown) VH: QVQLQESGPGLVKPSETLSLTCSVSWDAITSGYWNWVRQPPGNKLEYMGYISYSGSAHYNPSLKSRITISRDTSKNQYSLTLTSMTAADTALYYCASYSFAYWGQGTLVTVSS VL: DIVMTQSPPSLSVTPGESASISCRASQSIDNQLHWYLQKPGQSPQLLINYASQSISGVTDRFSGSGSGTDFTLKISRVEAEDVGMYFCQQSYGWPYTFGGGTKVEIKR | 0.053 | no binding (tested: 1 µg/ml (highest concentration)) | – | – | – | – | –
D011-7016-LD2 H5/L4 IgG2a (antibody, V domains shown) VH: QVQLQESGPGLVKPSQTLSLTCTVSWDAITSGYWNWVRQHPGNKLEYMGYISYSGSAHYNPSLKSRITISRDTSKNQYSLKLSSVTAADTAVYYCASYSFAYWGQGTLVTVSS VL: EIVLTQSPDFQSVTPKEKVTITCRASQSIDNQLHWYQQKPDQSPKLLIKYASQSISGVPSRFSGSGSGTDFTLTISSLEAEDAATYFCQQSYGWPYTFGGGTKLEIKR | 0.0495 | no binding (tested: 1 µg/ml (highest concentration)) | – | – | – | 0.00251 | 0.282
D011-7016-LD2 H1/L2 IgG2a (antibody, V domains shown) VH: QVQLQESGPGLVKPSQTLSLTCTVSWDAITSGYWNWVRQHPGKGLEYMGYISYSGSAHYNPSLKSRITISRDTSKNQYSLKLSSVTAADTATYYCASYSFAYWGQGTLVTVSS VL: DIVMTQSPPSLSVTPGESASISCRASQSIDNQLHWYLQKPGQSPQLLINYASQSISGVTDRFSGSGSGTDFTLKISRVEAEDVGMYFCQQSYGWPYTFGGGTKVEIKR | 0.0427 | no binding (tested: 1 µg/ml (highest concentration)) | – | – | – | – | –
